Data as given in article PMC8844045, “Dynamic FMR1 granule phase switch instructed by m6A modification contributes to maternal RNA decay”.

B1: AGACU (9x), m6A (ssRNA)
RNA: GGGAGACUAGACUAGACUGAGACUAGACUAGACUGAGACUAGACUAGACUGUAC
modifications: all A = m6A (m6ATP)
B2: mixed GGACU/AGACU/GAACU probe, m6A (ssRNA)
RNA: GGGGACUAGACUGAACUGGGACUAGACUGAACUGGGACUAGACUGAACUGUAC
modifications: all A = m6A (m6ATP)
B3: mixed GGACU/AGACU/GAACU probe, unmodified (ssRNA)
RNA: GGGGACUAGACUGAACUGGGACUAGACUGAACUGGGACUAGACUGAACUGUAC

How the values were obtained:
[1] = target: T1, FMR1 (MBP fusion) (UniProt Q9NFU0 1-684); assay: EMSA; EMSA: 10 mM HEPES pH 7.4, 50 mM KCl, 1 mM DTT (printed DDT), 1 mM EDTA, 0.05% Triton X-100, 5% glycerol, 10 ng/ul salmon DNA, 25 C, then 0.2% glutaraldehyde; SPR: 20 mM HEPES pH 7.4, 150 mM KCl, 1.5 mM MgCl2, 0.1% NP40, 25 C; pull-down: 10 mM Tris-HCl pH 7.5, 150 mM KCl, 1.5 mM MgCl2, 0.1% NP-40, 0.5 mM DTT, 4 C; details: protein: recombinant; label: biotin-16-UTP
T1 sequence (Q9NFU0 whole entry, the tested form may be a part): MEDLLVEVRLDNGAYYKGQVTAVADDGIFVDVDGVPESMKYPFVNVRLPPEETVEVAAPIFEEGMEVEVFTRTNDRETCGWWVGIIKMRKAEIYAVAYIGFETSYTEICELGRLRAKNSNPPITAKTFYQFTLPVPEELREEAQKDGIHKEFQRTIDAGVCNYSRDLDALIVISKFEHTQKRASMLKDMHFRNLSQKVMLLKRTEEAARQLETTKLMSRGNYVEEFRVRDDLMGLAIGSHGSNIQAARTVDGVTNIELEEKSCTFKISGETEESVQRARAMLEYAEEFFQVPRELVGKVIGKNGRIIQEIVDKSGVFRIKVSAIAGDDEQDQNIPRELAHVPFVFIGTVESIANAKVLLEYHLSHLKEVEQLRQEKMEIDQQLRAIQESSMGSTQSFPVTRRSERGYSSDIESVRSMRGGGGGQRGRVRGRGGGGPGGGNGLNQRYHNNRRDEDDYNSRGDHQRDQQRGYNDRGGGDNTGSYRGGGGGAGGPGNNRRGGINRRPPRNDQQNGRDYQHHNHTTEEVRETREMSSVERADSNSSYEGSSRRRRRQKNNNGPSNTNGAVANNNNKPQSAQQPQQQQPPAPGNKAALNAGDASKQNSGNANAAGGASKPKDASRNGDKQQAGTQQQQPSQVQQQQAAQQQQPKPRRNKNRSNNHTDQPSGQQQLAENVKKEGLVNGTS

[2] = target: T1, FMR1 (MBP fusion); assay: SPR; EMSA: 10 mM HEPES pH 7.4, 50 mM KCl, 1 mM DTT (printed DDT), 1 mM EDTA, 0.05% Triton X-100, 5% glycerol, 10 ng/ul salmon DNA, 25 C, then 0.2% glutaraldehyde; SPR: 20 mM HEPES pH 7.4, 150 mM KCl, 1.5 mM MgCl2, 0.1% NP40, 25 C; pull-down: 10 mM Tris-HCl pH 7.5, 150 mM KCl, 1.5 mM MgCl2, 0.1% NP-40, 0.5 mM DTT, 4 C; details: protein: recombinant; label: biotin-16-UTP

Binder	binding result [1]	Kd [2] [µM]
B1	binds	–
B2	–	0.0807
B3	–	3.6
